The data set concerns the molecule itself. Kind of data set: negative stain EM; TEV-cleaved purified MTHFRFL, 50 nM in 20 mM HEPES pH 7.5, 200 mM NaCl with 5 mM SAM or 2.6 mM SAH; 2D classes.

B1: full-length human 5,10-methylenetetrahydrofolate reductase (MTHFRFL aa 1-656) (enzyme)
chain: not shown
modifications: multiply phosphorylated during its recombinant expression (N-terminal Ser/Thr-rich region; sites not given)
notes: human 5,10-methylenetetrahydrofolate reductase (MTHFR), full-length, aa 1-656, wild type; Homodimer; also called MTHFRFL^SAM; MTHFRFL^(SAH (symm)); source: baculovirus/insect cell system, SF9 cells, purified (Ni-NTA, Superdex 200 size exclusion); flag/His10 tag removed with TEV protease; not shown: FLAG, C-terminal, cleaved; His10, C-terminal, cleaved
Consider B1, for which the binding result is recorded as “binds”.
